According to US20040038338A1, “Influence of LRP cytoplasmic domain on Abeta production” (priority 2001, published 2004):
Entries after “also recorded” stand apart in the source; their conditions may differ.

How the values were obtained:
cell surface APP = assay: Cell surface APP by iodinated 1G7 antibody at 4° C.; assay type: cell-based, mouse; conditions: LRP-CT expressed in LRP−/− cells expressing APP751
Protocol: To measure APP surface expression or internalization of surface APP, iodinated 1G7 monoclonal antibody was added to the cells in triplicate exactly as described previously (Koo et al., 1996). For the measurement of cell surface APP, the iodinated antibody was added to APP transfected LRP± and LRP−/− fibroblasts at 4° C. for 30 min followed by extensive washes. Specific binding was calculated after subtraction of the radioactivity obtained from parallel cultures of untransfected LRP± and LRP−/− fibroblasts, respectively. The radioactivity was then normalized to the rate of production of APP, which was determined in parallel cultures. The latter cells were metabolically labeled as described before and immunoprecipitated with polyclonal APP antibody to the C-terminus (CT15). Immunoprecipitates were subjected to SDS-PAGE, gels were dried and the APP signal was quantified by phosphor imaging.

APP processing = assay: Restoration of APP processing in LRP deficient cells (summary statements); assay type: cell-based; conditions: construct expressed in LRP deficient cells
APP-CTF = APP-CTF levels by immunoblotting (CT15) after expression of LRP-CT constructs in LRP−/− fibroblasts; assay type: cell-based, mouse; conditions: construct expressed in LRP−/− fibroblasts expressing APP751; compared to LRP± control cells
Protocol: (§1) Mouse fibroblasts deficient in LRP (LRP−/−; PEA 13) and corresponding LRP expressing control cells (LRP±; PEA 10) were obtained from American Type Culture Collection (Rockville, Md., USA) and cultured as described previously (Kang et al., 2000). LRP deficient CHO cell line (13-5-1), CHO cell line expressing a LRP trafficking mutant (14-2-1), and corresponding CHO K1 control cells (kind gift of Dr. S. Leppla) were grown in alpha DMEM supplemented with 10% fetal bovine serum (FitzGerald et al., 1995). Human APP695 and APP751 were inserted into the pBabepuro retroviral expression vector (Morgenstern and Land, 1990) and transferred into GP+E86 packaging cell line. Stable transformants were selected with puromycin (5 μg/ml). After infection with recombinant viruses, mouse fibroblasts were selected with puromycin (2.5 μg/ml)and analyzed after clonal selection for equal APP expression. […] After infection with recombinant viruses, LRP−/− mouse fibroblasts were selected with hygromycin (2.5 μg/ml) and analyzed (LRP−/−CT). […]
(§2) For detection of intracellular proteins, cell extracts were prepared using an NP40 lysis buffer. […] Western blotting was carried out with the indicated antibodies and detected by enhanced chemiluminescence (Pierce). Quantitation of the chemiluminescence signal was carried out with a CCD camera imaging system (GeneGnome, Syngene, Frederick, Md.).

Aβ secretion [1] = assay: Aβ secretion, transient expression of LRP-CT in human glioma cells; assay type: cell-based
[2] = system: APP processing in CHO 13-5-1 cells; assay: Transient expression of LRP-CT constructs in LRP deficient CHO 13-5-1 cells, APP-CTF and APPs by immunoblotting; assay type: cell-based; conditions: LRP−/− CHO 13-5-1 cells; compared to control levels
Protocol: as §1, §2

Aβ secretion [3] = assay: Aβ secretion from APP751-expressing CHO cells transfected with LRP-CT; assay type: cell-based; conditions: LRP-CT overexpressed in APP751-expressing CHO cells (LRP +/+)
APP internalization = assay: Internalization of cell surface APP by iodinated 1G7 antibody at 37° C.; assay type: cell-based, mouse; conditions: LRP-CT expressed in APP751 expressing LRP−/− cells; 30 min at 37° C.; compared to LRP± cells
Protocol: To measure internalization of cell surface APP, iodinated 1G7 antibody was added to confluent cultures of LRP±, LRP−/−, or LRP−/−CT fibroblasts stably transfected with APP695 or APP751 at 37° C. for 30 min. After incubation, cells were rapidly chilled on ice, and the reaction was quenched by the addition of ice-cold binding medium. Chilled cells were extensively washed and remaining surface antibody was detached by two acid washes. The cells were then lysed and collected for analysis. Acid-labile and acid-resistant radioactivity represents the surface and internalized pools of APP, respectively. Specific binding was determined after subtraction of the radioactive counts obtained from parallel cultures of untransfected LRP± and LRP−/− fibroblasts. The ratio of acid-resistant to acid-labile counts therefore provided a measure of the internalized versus cell surface pools of APP. All experiments in this study were repeated one to three times. […]
RESULTS: An APP internalization assay was performed in LRP-deficient cells expressing either APP695 or APP751 using a protocol established in Inventors' laboratory in which iodinated APP monoclonal antibody (1G7) was added to cultured cells at 37° C. for 30 minutes [Koo E H and Squazzo S L. J. Biol. Chem. 269:17386-17389, 1994]. Internalized and cell surface APP can be rapidly determined by the acid resistant and acid labile pools, respectively. […]

APPs = APPs in medium by immunoprecipitation-western blotting, LRP−/− fibroblasts expressing LRP-CT constructs; assay type: cell-based, mouse; conditions: construct expressed in LRP−/− fibroblasts expressing APP751; compared to LRP± control cells
Protocol: as §1, §2

Aβ secretion [4] = assay: Aβ secretion, transient expression of LRP-CT in N2A mouse neuroblastoma cells; assay type: cell-based
APP = target: T1, APP (Homo sapiens, UniProt P05067); assay: APP and LRP co-immunoprecipitation; assay type: binding; conditions: transfected cells
T1 construct: expressed in transfected cells

Aβ = Aβ ELISA of medium from LRP−/− fibroblasts expressing LRP-CT; assay type: cell-based, mouse; conditions: LRP-CT expressed in LRP−/− cells transfected with APP751; 72 hour collection; compared to LRP± cells
Protocol: Media from LRP−/−, LRP± LRP−/−CT fibroblasts was collected after an incubation period of 72 hours in serum free IS-CHO medium. Debris was removed by centrifugation (13,000 rpm for 20 min) and the supernatants were subjected to Aβ40 quantification using a standard sandwich ELISA described previously (Kang et al., 2000).

B1: LRP-CT: last 370 amino acids of the LRP β-subunit, transmembrane domain and entire cytoplasmic region, with signal peptide (protein)
chain: KRLDNGTCVPVPSPTPPPDAPRPGTCNLQCFNGGSCFLNARRQPKCRCQPRYTGDKCELDQCWEHCRNGGTCAASPSGMPTCRCPTGFTGPKCTQQVCAGYCANNSTCTVNQGNQPQCRCLPGFLGDRCQYRQCSGYCENFGTCQMAADGSRQCRCTAYFEGSRCEVNKCSRCLEGACVVNKQSGDVTCNCTDGRVAPSCLTCVGHCSNGGSCTMNSKMMPECQCPPHMTGPRCEEHVFSQQQPGHIASILIPLLLLLLLVLVAGVVFWYKRRVQGAKGFQHQRMTNGAMNVEIGNPTYKMYEGGEPDDVGGLLDADFALDPDKPTNFTNPVYATLYMGGHGSRHSLASTDEKRELLGRGPEDEIGDPLA
Cell surface APP
  amount of cell surface APP: did not alter the amount of cell surface APP
APP processing
  APP processing steps altered in the absence of LRP: can be restored; also recorded: partial to full restoration
APP-CTF
  levels of APP-CTF: restored to levels similar to LRP± cells; also recorded: restored to control levels; also recorded: can be restored; also recorded: restored to the level seen in LRP± cells
Aβ secretion [1]
  Aβ secretion: likewise reduced Aβ secretion
[2]
  deficiencies in APP processing: able to restore the deficiencies in APP processing in LRP−/− CHO 13-5-1 cells to control levels
Aβ secretion [3]
  Aβ secretion: inhibited Aβ secretion; also recorded: dramatically inhibited; also recorded: reduce Aβ secretion in proportion to level of expression
APP internalization
  APP internalization from the cell surface: largely restored to control level; also recorded: restored to almost control levels; also recorded: can be restored; also recorded: similarly restored; also recorded: partially restored
APPs
  levels of APPs in medium (APPs secretion): restored the levels of APPs back to the levels seen in APP751 overexpressing cells; also recorded: restored to control levels; also recorded: restores the abnormal levels of APPs; also recorded: restored to normal levels; also recorded: can be restored
Aβ secretion [4]
  Aβ secretion: likewise reduced Aβ secretion
APP
  co-immunoprecipitation with APP: can not only co-IP APP with LRP, but also with LRP-CT; also recorded: APP complexes with LRP-CT
Aβ
  Aβ level in medium: restored to control level present in LRP± control cells; also recorded: restored the Aβ levels back to control conditions; also recorded: can be restored
